Assay results from IntAct's records for PubMed 20581866.

B1: ATPase family AAA domain-containing protein 2 (Mus musculus), Q8CDM1 (parent)
chain: MSLLKMRRHAIHSSDSTSSSSSEDDCFERRTKRNRNRAINRCLPLNFRKDEIRGIYKDRMKIGASLADVDPMQLDTSVRFDSVGGLSSHIAALKEMVVFPLLYPEVFEKFKIQPPRGCLFYGPPGTGKTLVARALANECSRGDKRVAFFMRKGADCLSKWVGESERQLRLLFDQAYQMRPAIIFFDEIDGLAPVRSSRQDQIHSSIVSTLLALMDGLDSRGEIVVIGATNRLDSIDPALRRPGRFDREFLFSLPDKNARKEILKIHTRDWNPKPVDMFLEELAEHCVGYCGADIKSICAEAALCALRRRYPQIYTTSEKLQLDLSSITISAKDFEAALQKIRPASQRAVTSPGQALSAIVKPLLQNTVHRILDALQKVFPHVEVGTNKSLNSDVSCPFLESDLAYSDDDTPSVYENGLSQKENLNFLHLNRNACYQPMSFRPRLLIVGEPGFGQSSHLAPAVIHALEKFTVYTLDIPVLFGISTTSPEEACSQMIREAKRTAPSIVYVPHIHLWWEIVGPTLKATFTTLLQTIPSFAPVLLLATSEKPYSALPEEVQELFTHDYGEIFNVQLPDKEERTKFFEDLILKQASKPPVSQKKAVLQALEVLPVAPPPEPRPLTAEEVKRLEEQEEDTFRELRIFLRNVTHRLAIDKRFRVFTKPVDPDEVPDYVTVIKQPMDLSSVISKIDLHKYLTVKDYLKDIDLICSNALEYNPDRDPGDRLIRHRACALRDTAYAIIKEELDEDFEQLCEEIQESRKKRGCSSSKYAPSYYHVMPKQNSPPVGDKKPDQEQNEKLKVPCTPVACSTPAQLKRKFHKKSKWHVGTKIKRRKISQAKDNSLNAMNSSSRSDTEDSQHTHAEHTEPGNTDESSVEESDKQNRLESNIDLKNNSSSSNIENELEEPKETTEGTELRKDRIVCRGDASASQVTDIPEDSESKEMDFLRMTLARGSQVEQQELISMEQALAILSQPTPSLVLDHKQLTNILKTVVKKSQKYNIFQLENLYAVISQCIYEHRRDYDKTALVQKMEQAVENFNCSRS

Variants of: B1
Conditions: with h4_mouse H4c11, P62806

Variant | effect of a mutation on the interaction
Y670F | disrupting interaction
K128S | disrupting interaction
